Measurements as given in PMC2889250.
Read-outs that look alike come from different tables or passages of the source.

How the values were obtained:
Assay in all cases: SDS-PAGE
recombinant NaK channel [1] = biological target: recombinant NaK channel
recombinant NaK channel [2] = biological target: recombinant NaK channel; remark: listed apart in the source
[3] = biological target: semisynthetic NaK channel (residues 19-110)

| Substance | stoichiometry N (recombinant NaK channel [1]) | stoichiometry N (recombinant NaK channel [2]) | stoichiometry N [3] |
| --- | --- | --- | --- |
| recombinant NaK channel (natural protein) | 4 | 4 |  |
| semisynthetic NaK channel (residues 19-110) (natural protein) |  |  | 4 |
